Test results reported in article PMC10028186.

Test system: Strep-msIHF (mycobacterial integration host factor) (Mycobacterium smegmatis mc2 155)
Assay: BLI
Conditions: BLI: PBS with 50 mM Tris-HCl pH 7.5, 150 mM NaCl, 0.1 mg/ml BSA, 0.05% Tween-20, 30 C. EMSA: 50 mM Tris-HCl pH 8, 150 mM NaCl, 10 mM Mg acetate, 0.02% …

Substance: attB fragment
- Kd: 250 nM

Substance: oriC fragment
- Kd: 270 nM
